We go through one molecule from PMC3014449 (2010).

Positions of bridges follow the written chain, without caps; N, C: chain ends. Non-standard residues stand in square brackets, D forms with d. Trp(1-Me) = Cn1cc(C[C@H](N)C(=O)O)c2ccccc21; NMeI = CC[C@H](C)[C@H](NC)C(=O)O; Sar = CNCC(=O)O

The target of the experiment is C3b C3b (Homo sapiens, UniProt P01024). In words: SPR. A general note: SPR reads the build-up and loss of mass on a sensor chip optically.
Chain of C3b C3b (P01024 566-670): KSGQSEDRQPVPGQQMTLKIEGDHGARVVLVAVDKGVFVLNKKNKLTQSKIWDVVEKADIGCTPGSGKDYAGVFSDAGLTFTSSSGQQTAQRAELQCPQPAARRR

B1: compstatin analogue 21 (peptide)
chain: Ac-ICV[Trp(1-Me)]QDW[Sar]AHRC[NMeI]-NH2
modifications: disulfide 2-12
SMILES: CC[C@H](C)[C@H](NC(C)=O)C(=O)N[C@H]1CSSC[C@@H](C(=O)N(C)[C@H](C(N)=O)[C@@H](C)CC)NC(=O)[C@H](CCCNC(=N)N)NC(=O)[C@H](Cc2c[nH]cn2)NC(=O)[C@H](C)NC(=O)CN(C)C(=O)[C@H](Cc2c[nH]c3ccccc23)NC(=O)[C@H](CC(=O)O)NC(=O)[C@H](CCC(N)=O)NC(=O)[C@H](Cc2cn(C)c3ccccc23)NC(=O)[C@H](C(C)C)NC1=O
B1 showed a Kd of 2.3 nM.

A word on the Kd: it is a measure of binding affinity in units of concentration.
